The target of data set [1] is T1, Myelin basic protein isoforms containing exon 2-encoded sequence (17 kDa and 21.5 kDa) (Mus musculus, UniProt P04370-4 P04370-4:2-195). Description: southwestern blot; unique to 3064; 5 uM aptamer, PBS, 1 mM MgCl2, 14 h. Conditions: tags: none; from crude SJL mouse CNS myelin, SDS-PAGE separated and blotted to PVDF; label: 5'-fluorescein; putative intramolecular G4. The procedure:
(§1) To promote intramolecular folding, aptamer stock solutions (5 μM) in PBS were heated to 90° C., MgCl₂ was added to a final concentration of 1 mM, and solutions were allowed to cool room temperature. Myelin stock was diluted in PBS and sonicated on ice. Fluorescent folded aptamers were added to different amounts of myelin suspension and incubated at 37° C. for 3 hours. Insoluble material with bound aptamers was recovered by centrifugation for 30 seconds in a microcentrifuge. The pellet was washed with 100 μL PBS and again recovered by centrifugation. After phenol extraction and ethanol precipitation, fluorescent aptamers were quantitated in black plastic 96-well plates using a Typhoon Fluorescent Imaging system (GE Healthcare Biosciences; Piscataway, N.J.). For Southwestern blotting, 15 μg crude myelin protein was separated in each lane of a 10% Bis-Tris SDS polyacrylamide gel in 2-(N-morpholino)ethanesulfonic acid (MES) buffer. […] Fluorescein fluorescence was then detected on membranes using the Typhoon Fluorescent Imaging system. […]
(§2) The specificity of anti-myelin DNA aptamer 3064 and controls 3060 and 3202 was analyzed by assessing the binding of fluorescent aptamers to crude myelin protein suspension using centrifugal sedimentation to recover bound aptamers (FIG. 5A).

For data set [2], the target named is T2, Myelin basic protein 18.5 kDa isoform (Mus musculus, UniProt P04370-5 P04370-5:2-169). The experiment in a line: southwestern blot; 5 uM aptamer, PBS, 1 mM MgCl2. The settings on record: tags: none; from crude SJL mouse CNS myelin, SDS-PAGE separated and blotted to PVDF; label: 5'-fluorescein; putative intramolecular G4. The method, then: (§3) To promote intramolecular folding, aptamer stock solutions (5 μM) in PBS were heated to 90° C., MgCl₂ was added to a final concentration of 1 mM, and solutions were allowed to cool room temperature. Myelin stock was diluted in PBS and sonicated on ice. Fluorescent folded aptamers were added to different amounts of myelin suspension and incubated at 37° C. for 3 hours. Insoluble material with bound aptamers was recovered by centrifugation for 30 seconds in a microcentrifuge. The pellet was washed with 100 μL PBS and again recovered by centrifugation. After phenol extraction and ethanol precipitation, fluorescent aptamers were quantitated in black plastic 96-well plates using a Typhoon Fluorescent Imaging system (GE Healthcare Biosciences; Piscataway, N.J.). For Southwestern blotting, 15 μg crude myelin protein was separated in each lane of a 10% Bis-Tris SDS polyacrylamide gel in 2-(N-morpholino)ethanesulfonic acid (MES) buffer. After electrophoresis, duplicate lanes were either stained with Coomassie blue dye or transferred to polyvinylidene fluoride (PVDF) membrane by electroblotting. Western blotting was performed by standard methods using antibodies with the indicated specificities. For southwestern blots, membranes were blocked for 30 minutes at 37° C. in tris-buffered saline and TWEEN® 20 (TBST) buffer containing with 1% bovine serum albumin (BSA), 10% non-fat dry milk, 2 mg/mL sonicated and heat-denatured salmon testis DNA, and TWEEN® 20 detergent. Folded fluorescent aptamers (5 μM final concentration) were then added in PBS containing 1 mM MgCl₂ and incubated with PVDF membranes for 14 hours, followed by washing in TBST buffer and then in 0.5× tris/borate/EDTA (TBE) buffer. Fluorescein fluorescence was then detected on membranes using the Typhoon Fluorescent Imaging system. Tryptic peptide mass fingerprinting was performed.
as §2

Data set [3] concerns the target T3, Myelin oligodendrocyte glycoprotein MOG (23.8 kDa band) (Mus musculus, UniProt Q61885 Q61885:29-246).
T3 sequence: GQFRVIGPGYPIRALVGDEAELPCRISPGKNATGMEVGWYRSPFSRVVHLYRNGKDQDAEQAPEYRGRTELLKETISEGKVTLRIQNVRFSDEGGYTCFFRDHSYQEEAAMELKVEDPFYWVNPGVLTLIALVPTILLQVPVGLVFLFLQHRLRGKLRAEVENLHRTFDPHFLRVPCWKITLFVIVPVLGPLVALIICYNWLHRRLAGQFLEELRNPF
The experiment in a line: southwestern blot; 5 uM aptamer, PBS, 1 mM MgCl2. Conditions: tags: none; from crude SJL mouse CNS myelin, SDS-PAGE separated and blotted to PVDF; label: 5'-fluorescein; putative intramolecular G4. The method, then:
as §3, §2

Data set [4] concerns the target T4, Proteolipid protein PLP (12.5 kDa band) (Mus musculus, UniProt P60202 P60202:2-277).
T4 sequence: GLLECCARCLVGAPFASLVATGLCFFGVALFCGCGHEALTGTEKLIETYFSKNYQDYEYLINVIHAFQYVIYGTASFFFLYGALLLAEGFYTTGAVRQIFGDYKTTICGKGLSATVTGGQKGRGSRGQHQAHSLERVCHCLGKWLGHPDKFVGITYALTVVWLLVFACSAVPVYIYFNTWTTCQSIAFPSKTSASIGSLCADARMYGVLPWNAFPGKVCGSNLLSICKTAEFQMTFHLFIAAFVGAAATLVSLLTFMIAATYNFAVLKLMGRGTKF
The experiment in a line: southwestern blot; 5 uM aptamer, PBS, 1 mM MgCl2. The settings on record: tags: none; from crude SJL mouse CNS myelin, SDS-PAGE separated and blotted to PVDF; label: 5'-fluorescein; putative intramolecular G4. The method, then: as §3, §2

Data set [5] concerns the target T1, Myelin basic protein isoforms …. Description: southwestern blot; 17 and 21.5 kDa bands bound only by 3064. Conditions: tags: none; from crude SJL mouse CNS myelin, SDS-PAGE separated and blotted to PVDF; label: 5'-fluorescein; putative intramolecular G4. The procedure: as §1, §2
Data set [6] has as its target T2, Myelin basic protein 18.5 kDa isoform. Description: southwestern blot; control selected for chelated Ni. The settings on record: tags: none; from crude SJL mouse CNS myelin, SDS-PAGE separated and blotted to PVDF; label: 5'-fluorescein; putative intramolecular G4. The procedure: (§4) After electrophoresis, duplicate lanes were either stained with Coomassie blue dye or transferred to polyvinylidene fluoride (PVDF) membrane by electroblotting. Western blotting was performed by standard methods using antibodies with the indicated specificities. For southwestern blots, membranes were blocked for 30 minutes at 37° C. in tris-buffered saline and TWEEN® 20 (TBST) buffer containing with 1% bovine serum albumin (BSA), 10% non-fat dry milk, 2 mg/mL sonicated and heat-denatured salmon testis DNA, and TWEEN® 20 detergent. Folded fluorescent aptamers (5 μM final concentration) were then added in PBS containing 1 mM MgCl₂ and incubated with PVDF membranes for 14 hours, followed by washing in TBST buffer and then in 0.5× tris/borate/EDTA (TBE) buffer. Fluorescein fluorescence was then detected on membranes using the Typhoon Fluorescent Imaging system. Tryptic peptide mass fingerprinting was performed.
(§5) The specificity of anti-myelin DNA aptamer 3064 and controls 3060 and 3202 was analyzed by assessing the binding of fluorescent aptamers to crude myelin protein suspension using centrifugal sedimentation to recover bound aptamers (FIG. 5A). […] To further assess specificity, crude myelin proteins were separated by SDS-polyacrylamide gel electrophoresis and stained with Coomassie dye (myelin; FIG. 5B, left lane), or blotted to polyvinylidene (PVDF) membrane and probed with antibodies against myelin basic protein (MBP), proteolipid protein (PLP), or MOG in western blots (FIG. 5B, lanes 2-4), or probed with fluorescent aptamers 3202, 3060 or 3064 in southwestern blots (FIG. 5B, lanes 5-7). […] In particular, control aptamer 3060 and myelin-specific aptamer 3064 both bound to three myelin proteins with apparent molecular weights of 12.5 kDa, 18.5 kDa, and 23.8 kDa. Based on western analysis and mass spectrometry of tryptic peptides, these proteins were PLP, the 18.5 kDa isoform of MBP, and MOG, respectively.

In data set [7] the target is T3, Myelin oligodendrocyte glycoprotein MOG …. The description is as above. Conditions: tags: none; from crude SJL mouse CNS myelin, SDS-PAGE separated and blotted to PVDF; label: 5'-fluorescein; putative intramolecular G4. The method, then:
as §4, §5

Data set [8] addresses T4, Proteolipid protein PLP (12.5 kDa band). Described as above. The settings on record: tags: none; from crude SJL mouse CNS myelin, SDS-PAGE separated and blotted to PVDF; label: 5'-fluorescein; putative intramolecular G4. The method, then: as §4, §5
In data set [9] the target is T2, Myelin basic protein 18.5 kDa isoform. The experiment in a line: southwestern blot. Conditions: tags: none; from crude SJL mouse CNS myelin, SDS-PAGE separated and blotted to PVDF; label: 5'-fluorescein. The procedure:
as §3, §2

The target in data set [10] is T3, Myelin oligodendrocyte glycoprotein MOG …. Description: southwestern blot. The settings on record: tags: none; from crude SJL mouse CNS myelin, SDS-PAGE separated and blotted to PVDF; label: 5'-fluorescein. The method, then:
as §3, §2

The target in data set [11] is T1, Myelin basic protein isoforms …. Description: southwestern blot. Conditions: tags: none; from crude SJL mouse CNS myelin, SDS-PAGE separated and blotted to PVDF; label: 5'-fluorescein. The method, then:
as §3, §2

Data set [12] concerns the target T4, Proteolipid protein PLP (12.5 kDa band). Description: southwestern blot. Conditions: tags: none; from crude SJL mouse CNS myelin, SDS-PAGE separated and blotted to PVDF; label: 5'-fluorescein. The procedure:
as §3, §2

T1 sequence (P04370 other isoform, or with tags, fused parts or gaps): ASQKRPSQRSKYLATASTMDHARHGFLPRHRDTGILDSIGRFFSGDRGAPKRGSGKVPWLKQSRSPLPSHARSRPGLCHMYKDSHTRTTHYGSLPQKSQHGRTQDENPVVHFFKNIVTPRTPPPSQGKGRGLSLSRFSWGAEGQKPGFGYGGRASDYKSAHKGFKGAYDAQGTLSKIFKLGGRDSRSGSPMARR
T2 sequence (P04370 other isoform, or with tags, fused parts or gaps): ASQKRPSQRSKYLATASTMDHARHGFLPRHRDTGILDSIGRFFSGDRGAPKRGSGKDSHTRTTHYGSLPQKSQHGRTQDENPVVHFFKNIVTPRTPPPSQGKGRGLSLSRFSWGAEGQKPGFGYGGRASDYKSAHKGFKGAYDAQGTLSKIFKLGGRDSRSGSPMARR

As to GGGTCGGCGGGTGGGGTGGGAGGTGGTCTTGTCTCTGGGT (ssDNA) [3064], the binding result in data set [1], in [2], in [3] and in [4] was “binds” throughout.
For AAAGAACAAAAAGGATAAAGGGGGAGACGGGGGGAACATGGGG (ssDNA) [3060], the binding result in data set [5] is “no binding”; in data set [6], “binds”; in [7] it was “binds”; in data set [8], “binds”.
Turning to TTTTTTTTTTTTTTTTTTTTTTTTTTTTTTTTTTTTTTTT (ssDNA) [3202 (dT40)], the binding result in data set [9], in [10], in [11] and in data set [12] was “no binding” throughout.

These data come from patent US20140148501, “DNA APTAMERS FOR PROMOTING REMYELINATION” (MAYO FOUNDATION FOR MEDICAL EDUCATION AND RESEARCH, published 2014).
